Six molecules from US20100189695A1, “IRAK-1 AS REGULATOR OF DISEASES AND DISORDERS” (priority 2008, published 2010) can be followed below.

First the molecules themselves.
B1: D340N: mutated IRAK-1 molecule, mutation present in human patients with cardiovascular diseases (protein, UniProt P51617 1-712, looked up, variant D340N)
Interleukin-1 …: MAGGPGPGEPAAPGAQHFLYEVPPWVMCRFYKVMDALEPADWCQFAALIVRDQTELRLCERSGQRTASVLWPWINRNARVADLVHILTHLQLLRARDIITAWHPPAPLPSPGTTAPRPSSIPAPAEAEAWSPRKLPSSASTFLSPAFPGSQTHSGPELGLVPSPASLWPPPPSPAPSSTKPGPESSVSLLQGARPFPFCWPLCEISRGTHNFSEELKIGEGGFGCVYRAVMRNTVYAVKRLKENADLEWTAVKQSFLTEVEQLSRFRHPNIVDFAGYCAQNGFYCLVYGFLPNGSLEDRLHCQTQACPPLSWPQRLDILLGTARAIQFLHQDSPSLIHGNIKSSNVLLDERLTPKLGDFGLARFSRFAGSSPSQSSMVARTQTVRGTLAYLPEEYIKTGRLAVDTDTFSFGVVVLETLAGQRAVKTHGARTKYLKDLVEEEAEEAGVALRSTQSTLQAGLAADAWAAPIAMQIYKKHLDPRPGPCPPELGLGLGQLACCCLHRRAKRRPPMTQVYERLEKLQAVVAGVPGHSEAASCIPPSPQENSYVSSTGRAHSGAAPWQPLAAPSGASAQAAEQLQRGPNQPVESDESLGGLSAALRSWHLTPSCPLDPAPLREAGCPQGDTAGESSWGSGPGSRPTAVEGLALGSSASSSSEPPQIIINPARQKMVQKLALYEDGALDSLQLLSSSSLPGLGLEQDRQGPEESDEFQS
B2: C203S: mutated IRAK-1 molecule, mutation present in human patients with cardiovascular diseases (protein, UniProt P51617 1-712, looked up, variant C203S)
Interleukin-1 …: MAGGPGPGEPAAPGAQHFLYEVPPWVMCRFYKVMDALEPADWCQFAALIVRDQTELRLCERSGQRTASVLWPWINRNARVADLVHILTHLQLLRARDIITAWHPPAPLPSPGTTAPRPSSIPAPAEAEAWSPRKLPSSASTFLSPAFPGSQTHSGPELGLVPSPASLWPPPPSPAPSSTKPGPESSVSLLQGARPFPFCWPLSEISRGTHNFSEELKIGEGGFGCVYRAVMRNTVYAVKRLKENADLEWTAVKQSFLTEVEQLSRFRHPNIVDFAGYCAQNGFYCLVYGFLPNGSLEDRLHCQTQACPPLSWPQRLDILLGTARAIQFLHQDSPSLIHGDIKSSNVLLDERLTPKLGDFGLARFSRFAGSSPSQSSMVARTQTVRGTLAYLPEEYIKTGRLAVDTDTFSFGVVVLETLAGQRAVKTHGARTKYLKDLVEEEAEEAGVALRSTQSTLQAGLAADAWAAPIAMQIYKKHLDPRPGPCPPELGLGLGQLACCCLHRRAKRRPPMTQVYERLEKLQAVVAGVPGHSEAASCIPPSPQENSYVSSTGRAHSGAAPWQPLAAPSGASAQAAEQLQRGPNQPVESDESLGGLSAALRSWHLTPSCPLDPAPLREAGCPQGDTAGESSWGSGPGSRPTAVEGLALGSSASSSSEPPQIIINPARQKMVQKLALYEDGALDSLQLLSSSSLPGLGLEQDRQGPEESDEFQS
B3: T113I: mutated IRAK-1 molecule, mutation present in human patients with cardiovascular diseases (protein, UniProt P51617 1-712, looked up, variant T113I)
Interleukin-1 …: MAGGPGPGEPAAPGAQHFLYEVPPWVMCRFYKVMDALEPADWCQFAALIVRDQTELRLCERSGQRTASVLWPWINRNARVADLVHILTHLQLLRARDIITAWHPPAPLPSPGITAPRPSSIPAPAEAEAWSPRKLPSSASTFLSPAFPGSQTHSGPELGLVPSPASLWPPPPSPAPSSTKPGPESSVSLLQGARPFPFCWPLCEISRGTHNFSEELKIGEGGFGCVYRAVMRNTVYAVKRLKENADLEWTAVKQSFLTEVEQLSRFRHPNIVDFAGYCAQNGFYCLVYGFLPNGSLEDRLHCQTQACPPLSWPQRLDILLGTARAIQFLHQDSPSLIHGDIKSSNVLLDERLTPKLGDFGLARFSRFAGSSPSQSSMVARTQTVRGTLAYLPEEYIKTGRLAVDTDTFSFGVVVLETLAGQRAVKTHGARTKYLKDLVEEEAEEAGVALRSTQSTLQAGLAADAWAAPIAMQIYKKHLDPRPGPCPPELGLGLGQLACCCLHRRAKRRPPMTQVYERLEKLQAVVAGVPGHSEAASCIPPSPQENSYVSSTGRAHSGAAPWQPLAAPSGASAQAAEQLQRGPNQPVESDESLGGLSAALRSWHLTPSCPLDPAPLREAGCPQGDTAGESSWGSGPGSRPTAVEGLALGSSASSSSEPPQIIINPARQKMVQKLALYEDGALDSLQLLSSSSLPGLGLEQDRQGPEESDEFQS
B4: IRAK-M: a homologue of IRAK-1 (protein)
chain: MAGNCGARGALSAHTLLFDLPPALLGELCAVLDSCDGALGWRGLAERLSSSWLDVRHIEKYVDQGKSGTRELLWSWAQKNKTIGDLLQVLQEMGHRRAIHLITNYGAVLSPSEKSYQEGGFPNILFKETANVTVDNVLIPEHNEKGILLKSSISFQNIIEGTRNFHKDFLIGEGEIFEVYRVEIQNLTYAVKLFKQEKKMQCKKHWKRFLSELEVLLLFHHPNILELAAYFTETEKFCLIYPYMRNGTLFDRLQCVGDTAPLPWHIRIGILIGISKAIHYLHNVQPCSVICGSISSANILLDDQFQPKLTDFAMAHFRSHLEHQSCTINMTSSSSKHLWYMPEEYIRQGKLSIKTDVYSFGIVIMEVLTGCRVVLDDPKHIQLRDLLRELMEKRGLDSCLSFLDKKVPPCPRNFSAKLFCLAGRCAATRAKLRPSMDEVLNTLESTQASLYFAEDPPTSLKSFRCPSPLFLENVPSIPVEDDESQNNNLLPSDEGLRIDRMTQKTPFECSQSEVMFLSLDKKPESKRNEEACNMPSSSCEESWFPKYIVPSQDLRPYKVNIDPSSEAPGHSCRSRPVESSCSSKFSWDEYEQYKKE
B5: IRAK-1b: isoform of IRAK-1 that does not possess kinase activity (protein)
chain: MAGGPGPGEPAAPGAQHFLYEVPPWVMCRFYKVMDALEPADWCQFAALIVRDQTELRLCERSGQRTASVLWPWINRNARVADLVHILTHLQLLRARDIITAWHPPAPLPSPGTTAPRPSSIPAPAEAEAWSPRKLPSSASTFLSPAFPGSQTHSGPELGLVPSPASLWPPPPSPAPSSTKPGPESSVSLLQGARPFPFCWPLCEISRGTHNFSEELKIGEGGFGCVYRAVMRNTVYAVKRLKENADLEWTAVKQSFLTEVEQLSRFRHPNIVDFAGYCAQNGFYCLVYGFLPNGSLEDRLHCQTQACPPLSWPQRLDILLGTARAIQFLHQDSPSLIHGDIKSSNVLLDERLTPKLGDFGLARFSRFAGSSPSQSSMVARTQTVRGTLAYLPEEYIKTGRLAVDTDTFSFGVVVLETLAGQRAVKTHGARTKYLKDLVEEEAEEAGVALRSTQSTLQAGLAADAWAAPIAMQIYKKHLDPRPGPCPPELGLGLGQLACCCLHRRAKRRPPMTQENSYVSSTGRAHSGAAPWQPLAAPSGASAQAAEQLQRGPNQPVESDESLGGLSAALRSWHLTPSCPLDPAPLREAGCPQGDTAGESSWGSGPGSRPTAVEGLALGSSASSSSEPPQIIINPARQKMVQKLALYEDGALDSLQLLSSSSLPGLGLEQDRQGPEESDEFQS
B6: IRAK-1-ΔC: truncated version of IRAK-1 with deletion of the C terminal region (amino acids 548 to 712 are deleted) (protein, UniProt P51617 1-547, looked up, fragment)
chain: MAGGPGPGEPAAPGAQHFLYEVPPWVMCRFYKVMDALEPADWCQFAALIVRDQTELRLCERSGQRTASVLWPWINRNARVADLVHILTHLQLLRARDIITAWHPPAPLPSPGTTAPRPSSIPAPAEAEAWSPRKLPSSASTFLSPAFPGSQTHSGPELGLVPSPASLWPPPPSPAPSSTKPGPESSVSLLQGARPFPFCWPLCEISRGTHNFSEELKIGEGGFGCVYRAVMRNTVYAVKRLKENADLEWTAVKQSFLTEVEQLSRFRHPNIVDFAGYCAQNGFYCLVYGFLPNGSLEDRLHCQTQACPPLSWPQRLDILLGTARAIQFLHQDSPSLIHGDIKSSNVLLDERLTPKLGDFGLARFSRFAGSSPSQSSMVARTQTVRGTLAYLPEEYIKTGRLAVDTDTFSFGVVVLETLAGQRAVKTHGARTKYLKDLVEEEAEEAGVALRSTQSTLQAGLAADAWAAPIAMQIYKKHLDPRPGPCPPELGLGLGQLACCCLHRRAKRRPPMTQVYERLEKLQAVVAGVPGHSEAASCIPPSPQENSY

This assay deals with NFAT. Briefly: NFAT responsive element luciferase reporter assay in transfected Hela cells. The class given is cell-based, human. Particulars: co-transfection of expression plasmid with NFAT reporter. From the text: NFAT family transcription factors play critical roles in the pathogenesis of cardiovascular diseases, including hypertension and atherosclerosis. […] First, human Hela cells were trasfected with either empty vector plasmid or wild type IRAK-1 expression plasmid together with a NFAT responsive element-containing luciferase reporter plasmid. […] Subsequently, plasmids that express mutated IRAK-1 molecules (D340N, C203S, T113I, mutations which are present in human patients with cardiovascular diseases) have been generated.
Further experiments were performed to ask whether the C-terminal domain of IRAK-1 is involved in facilitating its suppressive regulatory function toward NFAT activity. […] Statistical significance was calculated using a t-Test for two-samples assuming unequal variances and p-values are as indicated.
In order to determine the mechanism for IRAK-1 involvement, transcription factor reporter assays were performed. In this set of experiments, NFAT reporter activity was determined in the presence of IRAK-1 or IRAK-M, a homologue of IRAK-1 (FIG. 10).
In the case of B1, the “suppression of NFAT reporter activity” value was “failed to suppress NFAT activity”.
For B2 the value was “failed to suppress NFAT activity”; for B3, “failed to suppress NFAT activity”; for B4, “did not show suppression of NFAT”.
For B5 the value was “cannot fulfill the inhibitory function on NFAT”; for B6, “failed to suppress NFAT activity”.
